Experimental data published in patent publication US20220308062A1, “METHODS FOR PREDICTING DRUG RESPONSIVENESS IN SAMPLES FROM CANCER SUBJECTS” (Board of Regents, The University of Texas System, priority 2019, published 2022).

B1: IL-11: cytokine, a member of the IL-6 cytokine family, used to treat PMA-stimulated U937 and THP-1 macrophages (protein, UniProt P20809 22-199, looked up)
Interleukin-11: PGPPPGPPRVSPDPRAELDSTVLLTRSLLADTRQLAAQLRDKFPADGDHNLDSLPTLAMSAGALGALQLPGVLTRLRADLLSYLRHVQWLRRAGGSSLKTLEPELGTLQARLDRLLRRLQLLMSRLALPQPPPDPPAPPLAPPSSAWGGIRAAHAILGGLHLTLDWAVRGLLLLKTRL

Key:
Format in all cases: cell-based, human
[1] = tested on: patient-derived organoids (PDOs); experiment: Patient-derived organoid CellTiter-Glo cell viability; details: Homo sapiens, 72 h; read-out: reduction in cell viability
Procedure: Patient-derived organoids (PDOs). Tumor tissues were minced on ice into 1 mm^3 small pieces. Tumor pieces (˜20 μl in volume) were resuspended in 200 μl Matrigel and seeded into 24 well plates for 15 min until gel solidify, followed by culture in advanced DMEM/F12 medium supplemented with B27 and N2 (Thermo Fisher Scientific), 0.01% BSA (Roche), 100 units/m penicillin-streptomycin (Thermo Fisher Scientific), and others (Table 4) for 4-8 weeks to grow organoids. […] The CellTiter-Glo Luminescent Cell Viability assay was used to determine drug responsiveness.

[2] = tested on: PMA-stimulated U937; experiment: Immunofluorescence of IL-11 treated U937; details: 25 ng/ml, 72 hr
Procedure: Immunofluorescence. PMA-stimulated U937 were cultured and treated with 25 ng/ml IL-11 over 72 hr. Cells were then fixed with 4% paraformaldehyde for 15 minutes. After fixation, cells were incubated with fluorescence conjugated primary antibody (CD14, CD86 and CD163) for 1 hour. Slides were mounted with mounting medium with DAPI and the images were taken with fluorescence microscope.

[3] = tested on: PMA-stimulated U937 and THP-1; experiment: Western blot of IL-11 treated macrophages; details: serial dosages, 72 hr
Procedure: Western blot analysis. PMA-stimulated U937 and THP-1 were cultured and treated with serial dosages of IL-11 over 72 hr. Cell lysates were harvested using RIPA buffer. The concentration of protein lysates was determined by Pierce™ BCA Protein Assay Kit (Thermo fisher). Forty micrograms of the total protein extracts were separated by NuPAGE™ 4-12% Bis-Tris Protein Gels (Thermo fisher) and transferred to PVDF membrane. The membranes were then blocked with 5% of Blotting-Grade Blocker (BioRad) in TBST and probed using primary antibodies against pSTAT3, STAT3 and GAPDH (Cell Signaling Technology; 2118S). Membranes were incubated in HRP-linked secondary antibodies following dilution with TBST (1:5000) at room temperature for one hour. Blots were developed using Western Lightning Plus-ECL Chemiluminescent Reagents (Perkin Elmer, Waltham, Mass.) and Syngene G:BOX Imaging System.

| Molecule | cytotoxicity at 15 µM [1] | CD163 (immunofluorescence) [2] | pSTAT3 (western blot) [3] |
| --- | --- | --- | --- |
| N#CC[C@H](C1CCCC1)n1cc(-c2ncnc3[nH]ccc23)cn1 [ruxolitinib] | 10 to 20% | – | – |
| B1 | – | up-regulated | up-regulated |
